The values that follow come from patent publication US20230322953A1 (HARBOUR BIOMED SHANGHAI, published 2023).

The target in one assay is T1, human 4-1BB (human, UniProt Q07011 24-255).
T1 construct: whole, on cells; also called CD137; TNFRSF9
Description: flow cytometry, CHO-K1/hu 4-1BB cells. On the technique in general: In flow cytometry, cells or beads pass a laser one at a time.

The target of assay [1] is T2, human PD-L1 (programmed death ligand 1) (human, UniProt Q9NZQ7 19-290).
T2 construct: whole, on cells; also called hPDL1; CD274
The experiment in a line: flow cytometry (FACS) on CHO-K1/hPDL1 cells, Experiment 2.

In assay [2] the target is T3, cynomolgus monkey 4-1BB (cynomolgus monkey).
T3 construct: whole, on cells; also called cyno 4-1BB
The experiment in a line: flow cytometry (FACS) on CHO-K1/cyno 4-1BB cells, Experiment 2.

The target of assay [3] is T4, human CTLA4-His protein (ACRO Biosystems, #CT4-H5229) (human, UniProt P16410 36-161).
T4 construct: extracellular domain; bought; also called hCTLA4-His; human CTLA4 extracellular domain recombinant protein
The experiment in a line: ELISA, coated hCTLA4-His.

Assay [4] concerns the target T5, human PD-L1-His protein (ACRO Biosystems, #PD1-H5229) (human, UniProt Q9NZQ7 19-238).
T5 construct: extracellular domain; bought; also called hPDL1-His; human PD-L1 extracellular domain recombinant protein
Description: ELISA, coated hPD-L1-His. For orientation: An ELISA detects its analyte on a solid surface through an enzyme-linked reagent.

Assay [5] deals with T6, human CTLA4 on cells (CHO-K1/hCTLA4; HEK293/hCTLA4; 293F-hCTLA4) (human, UniProt P16410 36-223).
T6 construct: whole, on cells
Description: FACS, CHO-K1/hCTLA4 cells (Test 1).

In assay [6] the target is T7, human PD-L1 on cells (CHO-K1/hPDL1; MDA-MB-231) (human, UniProt Q9NZQ7 19-290).
T7 construct: whole, on cells
The experiment in a line: FACS, CHO-K1/hPDL1 cells (Experiment 1).

In assay [7] the target is T8, biotinylated human CTLA4-Fc protein (ACRO Biosystems, #CT4-H82F3) (human, UniProt P16410 36-161, biotinylated).
T8 construct: bought; also called human CTLA4 protein
The experiment in a line: competition ELISA: biotinylated hCTLA4-Fc to coated B7-1-Fc.

The target in assay [8] is T8, biotinylated human CTLA4-Fc protein …. Described as above. The source holds these as a separate data set.
For assay [9], the target named is T6, human CTLA4 on cells (CHO-K1/hCTLA4; …). The experiment in a line: competition FACS: biotinylated B7-1-Fc to CHO-K1/hCTLA4 cells (Test 1).
In assay [10] the target is T7, human PD-L1 on cells (CHO-K1/hPDL1; …). Description: competition FACS: biotinylated PD-1 to CHO-K1/hPDL1 cells (Experiment 1).
Assay [11] deals with T4, human CTLA4-His protein (ACRO …). The experiment in a line: ELISA, coated hCTLA4-His. The source holds these as a separate data set.
Assay [12] deals with T2, human PD-L1 (programmed death ligand 1). Description: flow cytometry (FACS) on CHO-K1/hPDL1 cells, Experiment 1.
Assay [13] has the same target. Description: flow cytometry (FACS) on CHO-K1/hPDL1 cells, Experiment 3.
Assay [14] has as its target T6, human CTLA4 on cells (CHO-K1/hCTLA4; …). The experiment in a line: competition FACS: biotinylated B7-1-Fc to CHO-K1/hCTLA4 cells.
Assay [15] concerns the target T9, human CTLA4 on CHO-K1/hCTLA4 cells (human, UniProt P16410 36-223).
T9 construct: whole, on cells; CHO-K1 cell line highly expressing human CTLA4; also called human CTLA4 cell
The experiment in a line: flow cytometry on CHO-K1/hCTLA4 cells, Experiment 3.

Assay [16] has as its target T9, human CTLA4 on CHO-K1/hCTLA4 cells. Description: flow cytometry competition: biotinylated human B7-1-Fc on CHO-K1/hCTLA4 cells, Experiment 2.
The target in assay [17] is T3, cynomolgus monkey 4-1BB. Description: flow cytometry (FACS) on CHO-K1/cyno 4-1BB cells, Experiment 1.

B1: PR001760, anti-4-1BB heavy-chain antibody 1016P0011G10, hIgG1 (antibody, V domains shown)
VH: EVQLVESGGGVVQPGGSLRLSCAASGFTFSNYAMTWVRQAPEKGLEWVSSISGSGVSTYYADSVKGRFTISRDNSKNTLYLQMTRLTAEDTAVYFCAKEGSSETDDHYYNVDVWGQGTTVTVSS
notes: Heavy-chain-only antibody (HCAb), no light chain
With B1, in the assay with human 4-1BB, the response was half-maximal at 3.76 nM (EC50) and the “Maximum MFI” value worked out at 83600.

B2: PR004270, PD-L1×4-1BB bispecific antibody molecule of Fab-HCAb symmetric structure (bispecific antibody, human IgG1)
chain 1: EVQLVESGGGLVQPGGSLRLSCAASGFTFSSYWMSWVRQAPGKGLEWVANIKQEGSEKYYVDSVKGRFTISRDNAKNSLYLQMNSLRAEDTAVYYCARDRAVAGAFDIWGQGTMVTVSSASTKGPSVFPLAPSSKSTSGGTAALGCLVKDYFPEPVTVSWNSGALTSGVHTFPAVLQSSGLYSLSSVVTVPSSSLGTQTYICNVNHKPSNTKVDKKVEPKSC
chain 2: not shown
notes: Structure 1 Fab(CL)-VH-Fc; Fab of PR000265, VH of PR001760; linker H1_15, human IgG1 hinge (C220S); human IgG1 (L234A, L235A)
In the case of B2, the 50% effective concentration (EC50) (usually the concentration that produces a half-maximal response) in assay [1] was found to be 0.963 nM; with cynomolgus monkey 4-1BB [2] it was 1.55 nM.

B3: PR000302 (bispecific antibody, human IgG1, kappa)
chain: DIQMTQSPSTLSASVGDRVTVTCRASQSIYIWLAWYQQKPGKAPNLLIYKASSLETGVPSRFSGSGSGTEFTLTISSLQPDDFATYYCQQYYGSSRTFGQGTKVEIKRTVAAPSVFIFPPSDEQLKSGTASVVCLLNNFYPREAKVQWKVDNALQSGNSQESVTEQDSKDSTYSLSSTLTLSKADYEKHKVYACEVTHQGLSSPVTKSFNRGECEPKSSDKTHTPPPPPEVQLVESGGGLIQPGGSLRLSCAVSGFTVSKNYMSWVRQAPGKGLEWVSVVYSGGSKTYADSVKGRFTISRDNSKNTLYLQMNSLRAEDTAVYYCARAVPHSPSSFDIWGQGTMVTVSS
heavy: not shown
Consider B3, for which the EC50 in assay [3] was found to be 10.6 nM; in assay [4], 0.152 nM; in assay [5], 26.1 nM; in assay [6], 0.737 nM. For the same molecule, the “Maximum OD450” value worked out at 3.55 OD450 in [3] and 3.54 OD450 in [4]. Further, the entries for the “Maximum MFI” value in assay [5] and in assay [6] were 1570 MFI and 18600 MFI, respectively. In addition, the “fold weaker IC50 than PR000184” value in assay [7] came out at 4 fold. Besides, the values for the half-inhibitory concentration (IC50) in [8], in [9] and in [10] were 11.6 nM, 71.2 nM and 0.64 nM, respectively. Moreover, the “Maximum inhibition rate (%)” value in assay [8] stood at 98.9%; in assay [9], 49%; in [10], 96.7%.

B4: PR000303 (bispecific antibody, human IgG1, kappa)
light: DIQMTQSPSTLSASVGDRVTVTCRASQSIYIWLAWYQQKPGKAPNLLIYKASSLETGVPSRFSGSGSGTEFTLTISSLQPDDFATYYCQQYYGSSRTFGQGTKVEIKRTVAAPSVFIFPPSDEQLKSGTASVVCLLNNFYPREAKVQWKVDNALQSGNSQESVTEQDSKDSTYSLSSTLTLSKADYEKHKVYACEVTHQGLSSPVTKSFNRGEC
chain: not shown
Take B4: the “fold poorer EC50 than PR000184” value in assay [11] came to 2.6 fold. Besides, the EC50 is 1.57 nM in assay [3], 0.241 nM in [4], 4.36 nM in assay [5] and 0.848 nM in [6]. For the same molecule, the entries for the “Maximum OD450” value in [3] and in assay [4] were 2.72 OD450 and 3.52 OD450, respectively. In addition, the “Maximum MFI” value in assay [5] came out at 2040 MFI; in [6], 18000 MFI. Moreover, the 50% inhibitory concentration (IC50) (commonly the point on the concentration scale where inhibition reaches its midpoint) came out at 4.12 nM in assay [8], 9.71 nM in [9] and 0.695 nM in [10]. Besides, the “Maximum inhibition rate (%)” value in assay [8] was found to be 97.3%; in assay [9], 83.3%; in [10], 95.9%.

B5: Anti-PD-L1 91G3H5H3 (D54E), hIgG1 (N297A) (antibody)
light: DIQMTQSPSTLSASVGDRVTVTCRASQSIYIWLAWYQQKPGKAPNLLIYKASSLETGVPSRFSGSGSGTEFTLTISSLQPDDFATYYCQQYYGSSRTFGQGTKVEIKRTVAAPSVFIFPPSDEQLKSGTASVVCLLNNFYPREAKVQWKVDNALQSGNSQESVTEQDSKDSTYSLSSTLTLSKADYEKHKVYACEVTHQGLSSPVTKSFNRGEC
heavy: not shown
notes: hIgG1 (N297A); also called PR000265
With B5, the figures for the 50% effective concentration (EC50) in assay [12], in [1] and in [13] were 0.781 nM, 0.356 nM and 1.56 nM, respectively. Also, the “Maximum MFI” value in assay [12] is 2000 MFI; in [13] it was 47000 MFI.

B6: PR002672 (bispecific antibody)
chain 1: not shown
chain 2: not shown
chain 3: EVQLVESGGGLIQPGGSLRLSCAVSGFTVSKNYMSWVRQAPGKGLEWVSVVYSGGSKTYADSVKGRFTISRDNSKNTLYLQMNSLRAEDTAVYYCARAVPHSPSSFDIWGQGTMVTVSSGGGGSEVQLVESGGGLIQPGGSLRLSCAVSGFTVSKNYMSWVRQAPGKGLEWVSVVYSGGSKTYADSVKGRFTISRDNSKNTLYLQMNSLRAEDTAVYYCARAVPHSPSSFDIWGQGTMVTVSSEPKSSDKTHTCPPCPAPELLGGPDVFLFPPKPKDTLMISRTPEVTCVVVDVSHEDPEVKFNWYVDGVEVHNAKTKPREEQYNSTYRVVSVLTVLHQDWLNGKEYKCKVSNKALPAPEEKTISKAKGQPREPQVCTLPPSREEMTKNQVSLSCAVKGFYPSDIAVEWESNGQPENNYKTTPPVLDSDGSFFLVSKLTVDKSRWQQGNVFSCSVMHEALHNHYTQKSLSLSPGK
notes: HER2×CTLA4, structure 18 Fab(cross Fd/LC)-Fc-VH-VH
Consider B6, for which the “fold poorer IC50 than the parent monoclonal antibody” value in [14] is ~4 fold.

B7: HER2xCTLA4 bispecific antibody molecule PR002672 (bispecific antibody, human IgG1)
chain 1: not shown
chain 2: not shown
chain 3: EVQLVESGGGLIQPGGSLRLSCAVSGFTVSKNYMSWVRQAPGKGLEWVSVVYSGGSKTYADSVKGRFTISRDNSKNTLYLQMNSLRAEDTAVYYCARAVPHSPSSFDIWGQGTMVTVSSGGGGSEVQLVESGGGLIQPGGSLRLSCAVSGFTVSKNYMSWVRQAPGKGLEWVSVVYSGGSKTYADSVKGRFTISRDNSKNTLYLQMNSLRAEDTAVYYCARAVPHSPSSFDIWGQGTMVTVSSEPKSSDKTHTCPPCPAPELLGGPDVFLFPPKPKDTLMISRTPEVTCVVVDVSHEDPEVKFNWYVDGVEVHNAKTKPREEQYNSTYRVVSVLTVLHQDWLNGKEYKCKVSNKALPAPEEKTISKAKGQPREPQVCTLPPSREEMTKNQVSLSCAVKGFYPSDIAVEWESNGQPENNYKTTPPVLDSDGSFFLVSKLTVDKSRWQQGNVFSCSVMHEALHNHYTQKSLSLSPGK
notes: Structure 18 Fab(cross Fd/LC)-Fc-VH-VH (trivalent asymmetric); PR000210 Fab, two PR000184 VH in tandem, linker GS_5
As for B7, in [15], the half-maximal effective concentration (EC50) was 2.79 nM. Also, in assay [16], the half-maximal inhibitory concentration (IC50) amounted to 0.983 nM.

B8: Anti-4-1BB monoclonal antibody utomilumab analog, hIgG2 (antibody, V domains shown)
VH: EVQLVQSGAEVKKPGESLRISCKGSGYSFSTYWISWVRQMPGKGLEWMGKIYPGDSYTNYSPSFQGQVTISADKSISTAYLQWSSLKASDTAMYYCARGYGIFDYWGQGTLVTVSS
VL: SYELTQPPSVSVSPGQTASITCSGDNIGDQYAHWYQQKPGQSPVLVIYQDKNRPSGIPERFSGSNSGNTATLTISGTQAMDEADYYCATYTGFGSLAVFGGGTKLTVLG
notes: tied to PR000483 by the list of control molecules; also called PR000483
Take B8: in the assay with cynomolgus monkey 4-1BB [17], the EC50 turned out to be 0.347 nM and the “Maximum MFI” value worked out at 5390 MFI. Besides, the EC50 in the assay with cynomolgus monkey 4-1BB [2] was 0.337 nM.
